Measured values published in publication PMC5551564 (The Journal of Experimental Medicine, 2017).

Target: T1, human IL-17RE (Thr155-Ser451), soluble form (human, UniProt Q8NFR9 155-451)
T1 sequence (looked up): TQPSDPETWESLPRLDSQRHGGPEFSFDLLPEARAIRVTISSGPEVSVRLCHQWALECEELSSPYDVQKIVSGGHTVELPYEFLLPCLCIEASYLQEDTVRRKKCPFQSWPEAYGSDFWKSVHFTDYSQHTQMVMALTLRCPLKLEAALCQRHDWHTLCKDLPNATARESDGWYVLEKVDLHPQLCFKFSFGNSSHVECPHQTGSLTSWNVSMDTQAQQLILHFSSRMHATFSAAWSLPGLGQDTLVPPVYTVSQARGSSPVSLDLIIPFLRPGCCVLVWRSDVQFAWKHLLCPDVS
Assay: SEC

B1: human IL-17c (residues His19-Val197), soluble form (ligand, UniProt Q9P0M4 19-197, looked up)
chain: HHDPSLRGHPHSHGTPHCYSAEELPLGQAPPHLLARGAKWGQALPVALVSSLEAASHRGRHERPSATTQCPVLRPEEVLEADTHQRSISPWRYRVDTDEDRYPQKLAFAECLCRGCIDARTGRETAALNSVRLLQSLLVLRRRPCSRDGSGLPTPGAFAFHTEFIHVPVGCTCVLPRSV
binding result: binds
